Residue numbers refer to the chain shown, from its start.
Key:
[1] = biological target: T1, human TIGIT ECD-his (fusion protein of extracellular domain of human TIGIT and His-tag) (human); assay: BIAcore kinetics
T1 construct: entry includes the signal peptide, limits not readable here
T1 chain: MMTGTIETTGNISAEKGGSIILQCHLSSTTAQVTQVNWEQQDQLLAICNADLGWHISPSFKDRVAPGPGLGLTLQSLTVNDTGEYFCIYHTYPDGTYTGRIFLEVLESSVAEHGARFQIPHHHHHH

[2] = biological target: T2, full-length human TIGIT on CHO-K1 cells (CHO-K1 human TIGIT) (human, UniProt Q495A1 22-244); assay: FACS, CHO-K1 human TIGIT high expression strain
T2 construct: NCBI XP_024309156.1; entry includes the signal peptide; also called high expression strain 1D2; medium expression strain 2D10
T2 sequence: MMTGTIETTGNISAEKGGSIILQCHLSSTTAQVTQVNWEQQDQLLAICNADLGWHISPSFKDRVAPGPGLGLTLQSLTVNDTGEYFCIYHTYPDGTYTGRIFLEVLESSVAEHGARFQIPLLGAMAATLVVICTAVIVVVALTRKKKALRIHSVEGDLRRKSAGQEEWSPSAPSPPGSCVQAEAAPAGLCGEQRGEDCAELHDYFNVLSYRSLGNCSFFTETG
Procedure: (§1) The collected cells were washed once with PBS (Hyclone, Cat NO. SH30256), resuspended to 2×10⁵/50 μL with 1% BSA-PBS. The antibodies were diluted to 80 nM with 1% BSA-PBS (diluted by 3-fold serial dilution for 12 concentration points). The 50 μL cells were then mixed with 50 μL diluted antibodies, and then incubated at 4° C. for 60 minutes. […] After washing twice with PBS, the cell samples were resuspended with 1% BSA-PBS, 100 μL/well and then analyzed by flow cytometry (BD, Canto II).

[3] = biological target: T2, full-length human TIGIT on CHO-K1 cells …; assay: FACS, low expression strain
Procedure: as §1, with “CAT #SH30256),” for “Cat NO. SH30256),”, “II). […] [0298] (c) The effect of anti-TIGIT chimeric antibodies blocking the interaction between Bio-CD155-His and CHO-K1 human TIGIT high expression cell strains detected by FACS” for “II).”

[4] = biological target: T3, cynomolgus monkey PVRIG (Novoprotein, Cat NO. C09B) (cynomolgus monkey, UniProt A0A2K5WVV8 41-171); assay: ELISA, coated cynomolgus monkey PVRIG
T3 construct: bought reagent; also called cynomolgus monkey PVRIG recombinant protein
T3 sequence: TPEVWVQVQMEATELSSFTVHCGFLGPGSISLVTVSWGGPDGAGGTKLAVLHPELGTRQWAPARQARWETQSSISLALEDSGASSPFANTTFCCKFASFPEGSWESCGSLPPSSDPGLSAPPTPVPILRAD

[5] = biological target: T4, Fusion protein of extracellular domain of human TIGIT and His-tag (human TIGIT ECD-his) (human); assay: BIAcore; KD ratio to TIGIT-CHI-002
T4 chain: T1 chain

[6] = biological target: T4, Fusion protein of extracellular domain …; assay: BIAcore; KD ratio to TIGIT-CHI-006
[7] = biological target: T4, Fusion protein of extracellular domain …; assay: BIAcore; KD ratio to TIGIT-CHI-070

B1: RG6058-hIgG1 (antibody, V domains shown)
VH: EVQLQQSGPGLVKPSQTLSLTCAISGDSVSSNSAAWNWIRQSPSRGLEWLGKTYYRFKWYSDYAVSVKGRITINPDTSKNQFSLQLNSVTPEDTAVFYCTRESTTYDLLAGPFDYWGQGTLVTVSS
VL: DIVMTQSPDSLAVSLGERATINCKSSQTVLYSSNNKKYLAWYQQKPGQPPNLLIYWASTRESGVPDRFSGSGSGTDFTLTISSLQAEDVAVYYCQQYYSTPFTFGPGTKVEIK
notes: human IgG1 format by its name; also called Roche RG6058; control antibody RG6058
- Kd [1]: 163 pM
- koff [1]: 0.000147 s⁻¹
- kon [1]: 903000 M⁻¹ s⁻¹
- EC50 (read off the curve) [2]: ~600 pM
- EC50 [3]: 495 pM

B2: SRF813-hIgG1 (antibody, V domains shown)
VH: QVQLVQSGAEVKKPGSSVKVSCKASGGTFSSAAISWVRQAPGQGLEWMGNIIPIVGIANYAQKFQGRVTITADESTSTAYMELSSLRSEDTAVYYCARDTGRGYTRHFWFDPWGQGTLVTVSS
VL: DIQMTQSPSSLSASVGDRVTITCRASQSISSYLNWYQQKPGKAPKLLIYAASSLQSGVPSRFSGSGSGTDFTLTISSLQPEDFATYYCQQSDILYTFGGGTKVEIK
notes: human IgG1 format by its name
- EC50 (read off the curve) [4]: ~60 pM

B3: TIGIT-002-H4L3 (antibody, V domains shown)
VH: EVQLQESGPGLVKPSETLSLTCAVSGYSITSDSWNWIRQPPGKKLEYIGYISYSGNTYYNPSLKSRVTISRDTSKNQFSLKLSSVTAADTAVYYCARLDFSNYGGAVDYWGQGTTVTVSS
VL: DIVMTQSPDSLAVSLGERATINCKASQNVRTAVAWYQQKPGQSPKLMIYSASYRYTGVPDRFSGSGSGTDFTLTISSLQAEDVAVYYCQQYYTTPWTFGGGTKVEIK
notes: Humanized anti-TIGIT antibody
- Fold change vs chimeric antibodies (KD) [5]: 1.26 fold

B4: TIGIT-006-H5L3 (antibody, V domains shown)
VH: B3 VH with I29M, S33Y, N56R, L98G, F100Y, V107M, D108Y, Y109D
VL: DIVMTQSPDSLAVSLGERATINCRASQGVSTTIAWYQQKPGQSPKLLIYSASYRYTGVPRFSGSGSGTDFTLTISSLQAEDVAVYYCQQYYSSPFTFGGGTKVEIK
notes: Humanized anti-TIGIT antibody
- Fold change vs chimeric antibodies (KD) [6]: 0.83 fold

B5: TIGIT-070-H1L1 (antibody, V domains shown)
VH: EVQLVQSGAEVKKPGASVKVSCKASGYTFTNYYMHWVRQAPGQRLEWMGRIDPDSGGSKYNEKFKSRVTITVDKSASTAYMELSSLRSEDTAVYYCAREGHYGFYSDYWGQGTTVTVSS
VL: DIQMTQSPSSLSASVGDRVTITCRVSENIYSYLAWYQQKPGKSPKLLIYNAKTLAEGVPSRFSGSGSGTDFTLTISSLQPEDFATYYCQHHYGNPLTFGPGTKVDIK
notes: Humanized anti-TIGIT antibody
- Fold change vs chimeric antibodies (KD) [7]: 0.59 fold

From patent publication US20240343803A1 (SHANDONG SIMCERE BIOPHARMACEUTICAL, published 2024)
